Patent US20240026407A1, “MODIFICATION OF SAPONINS” (GLAXOSMITHKLINE BIOLOGICALS SA, priority 2020, published 2024)

B1: 1030 (protein, listed as Lactobacillus crispatus)
chain: MKLVRIEVNHMETPIGFNLDNHLHLVGFLDGPVTSKLQRKLIIKAHDKEIVTFDWENADNLIFDFPINLTARTRYEVEMSVKNDREMSTATTYFETGQIDETLKGKWIGTEHKDLHSIILYKKFTTKDVKKARLYISGLGLFEAYLDGNKIGNEFLTPGFTDYNYDLQIESYDLTTELLKSGEHTLAIMLGDGWYRGKLGLKVHGGQPNNYGDQLMAIADLRINDDQQIIVTDKSWQVTTSPITHSGIYYGEDLDDNRQLNELANAIELTSPTKHLVDRQSLPIQRHEQFSVKEIIKTPSGATVLDFGQNMAGWLEFKNTIPKGEKVSIEFGEIMLDGEFYRDNLRSARAQFTYVSDGKEKWVRPHFTYFGFRYVKLNDFEGEIDPNNFRAVALYSNMIETGEIITNNSDVNRLFENVKWGQKSNFIDIPTDCPQRDERLGWTGDAAIFSKTASYNMDTYQFLKKYAYDIAVEQSKNNGFVPLYVPAVDTKDGGKAVWSDAATIIPWIAYKRTGDLAILRQNIGAMMSWVDWIHDRAVSHGQEYLWLGDDQLGDWLALDTEDIMKLKGKTPDDLIASAYYYYSAKLVSQSAETLNMKHEKQYYGQLAKLIKHAFINHFFTKDGLSIADTQTGLALCLSFKLYPANAKDNLINKLVEKVEVNQNHLNTGFVGTPLLLPALTDNGQQDLALRLFLNTDFPSWLFEVKNGATTIWERWNSVDSEGHIAQNGMNSLNHYSSGAVMEWAYEDLLGLKQNGNDAVFKPMLTAKLNQISGQIALPTGIVKVAWHIKSSKLIHLEMDIPYGSHLKLILPKHEQDIPTIFKSGHYELDVEVINPIVEAFDVHTPLAEYRNQTSLTKKLSELVPFWGFLAMPGNMDHFAKYSLLQLSREMRGIGFKPFTQEDIEKINQLFKEYHFKGAEK
B2: 1051 (protein)
chain: MDGGPLFLSWQCTGGLRQTAYEIHLTADDALVWESGKVATQSMHADAPAVEGARVRGSWKVRLWDENNCPGPWSGARFETGLSTGEWQGLWVAPETAPLDIPGDDAINAFARPNWERKQAEKEAAGKGAAEPYQPHRPASYLRKTFTAPSGRGRLYITAKGLYVAWLNGVRVGDMVLAPGSFTADKHLGAQTYDVTALLREGENELLIALGDGWYRSTSGVDGDRNLFGDTLGVLFQLEVDGKVVCVSDDTMQATQQGPIRQNDLQQGEVYDARLEGLLSGWHEVQTYRDALPVTGMNTVPIREREAFPGRLFTAPNGETVLDFGQNIAGYVEMTLTAHAGQKVLLTCGETLDENGNFTQENFQDRSRHNEGGTAQMLELICKEGVNHWKPSFTIMGFQYAKVETDADLTGAVFTAHAVYSDMAVTGSFTCGNKAVNRLVANSIWSQKGNFCDIPTDCPTRERAGWTGDMGVFIETGLTLMDCYPVVAKWLKECRLNQYPDGRMANIAPPNSRPGYMTPMLCMSAGWGDAAILVPYALYKRTGDRRILADNYEMMQRWYAFLLGRAQQTTEEQQSGEYAKYTVLNGLDYGEWCEPGVTPMQAMANPRKSVGTAYLAYSGRLLAEIAAVLGRQEEADAYRATADKAVKAYRAAFTEDGVIHSDRQCEYVRAIAFALLGEEESRAAATTLNQMVVDNGCHLNTGFLSTPFLCGVLAQYGYIDTAYRLLLQPEAPGWLYEVNKGANTVWETWTGIDAEGKPHESLNHYSYGAICGWLFGGVCGIHFTDGQLTIAPTPHKALGYAKAVYDSPAGRIESGWRYEGDTVTYEFTIPTNITAHIHLPDGRTRMLSAGTHRL
modifications: Subdoligranulum variabile
B3: 1013 (protein, listed as Chloroflexus aurantiacus)
chain: MSYEQLSTSQSQVSRLIVRVEHYQSTLGIGNPCPRLSWIIETNATNWLQTAYEIECYTKDGRVRGRTGWIHSPESVLVPWPFEPLTSREQVLVRVRVRDNKGDISPWSEMLPIEAGLLKVGDWSARFITPDWDDDILKPQPCPMLRHEFRVDNDVIQARLYITSLGVYEAQINGVVVGDQVLAPGWTVYDRRLRYQTFDVTMHLREGINAIGVILGDGWFRGRLGFGGGRRNIYGNRLAVLAQLEITYRDGSTQQVCTDQTWRSTTGPILASDIYDGEIYDARLELPNWSKPGFADHQWSGVRLLEWDFSTLVAPISPPIRRIEMVLPVAIFSSPSGRTIVDFGQNLVGRVRLTVSGPPGQMITVRHAEVLEGGELSTRPLRFAAATDRYILRGDGTEVWEPRFTFHGFRYAEIDGWPGELRTTDIVAVVIHSDMERIGWFTCSDQLLNRFHENVVWSMRGNFLDVPTDCPQRDERLGWTGDIQVFAPTAVFLYDVAGLLQSWLIDLAIEQEKLGGAVPHVVPNVLGPSAAGAAAWGDAATVVPWVLFQRYGDKRVLETQYKSMRSWVDYIATKAGHTYLWDRGFQFGDWLDPTAPPDKPGQARTDKAIVASAYFIFSATLVAKAAHVLGYDADADFYADLAHKARFAFAKEYITPAGRLMCDTETAYALALVFDLFPTDTQRRYAGERLAALVRDSGYHIRTGFVGTPLICDALCSVGHCRVAYRLLMQRECPSWLYPVTMGATTIWERWDSMLPDGSINPGEMTSFNHYALGAVADWMHRTIGGLIPVEPGYRRIEFRPQPGGEIVYARVSHRTPYGLAECFWRIEEGVFYLRVVVPPNTTAQVFLPGRDDQPLDVGSGIWQWSIPCQDTATRGSYTVDDLVDEIIDDEVAREAVNQVLSQVDAWRLFGNLLLNERSASLREAIQALPNSEIVIERLNALLTRIPKKDGI
B4: 1006 (protein, listed as Geobacillus sp.)
chain: MAAIKATDLRTEGILNPFGLDAERPRLSWSFGQPAGAGSGQSAYRIAVASSEERLKLGEPDVWDSGIVRSCEHVSIPYEGASLMPRRRYYWHVTAWDGQGQPAVSKAAWWETGLLAEAKWSERWIGDAAEAADRGPMIQLRKSFEVKKPVARARAYVTGLGHYELRLNGAKVGDRQLEPGWTNYDKTVLYSVYDVTPGLRQGENAVGVLLGNGFYRVAGGRYAKFKGSFGNPKCLAELVIEYADGTAETIVTDGTWSLSDSPLTFSCIYGGEDYDAGLERTGWDGPGFVEDGDWRRACELEPPPGKLTAQSSPPLAITKRLPARSVSEPRRGVYVYDLGQNFSGWPCIRVSGPNGTRVKLKPAELLTEEGLANQKYSGSPYELNYVLKGEGIEEWHPRFTYYGFRYVQVEGAAPAGEGVEESDLPVLHGLEGHMIGPDVEDAGGFRCSDPLLNRIHEIINWAILSNMKSVFTDCPHREKLGWLEQLHLMGPSVMFNYECEALLEKIMRDMSDAQLPNGMVPTTAPEYVVFEEPWHMFRDAAAWGGSYILLAWEMLRRYGSVGTLERHYEGMGRYVHYLTEASDGFILRGGLGDWYDIGPKGPGFAQNTSVALVETAIFFGLARALGEIALVLGKAEDASAHSRLSESIRTAFHSAFYDTANAMYAEGSDTAIAMPLAIGLAPEELRGVLLDRLVRNIGERGWQTTAGDVGHRYVLSALASGGRSDVVGKMARNPHAPGYAYQVAHGATSLTEAWDGPTVGKSQNHFMLGHLEEWLYASLAGLDYRYRPEVGRYLVKAKPTVVQGVEWAEAWQQLRSGRASVRWELGPSNQMTVRVDIPANSEGLIRIPSSPDTPVLASGPDVAYEGHEDGHAVYRSGPGSYCFTFAANHRTTEMERERM
B5: 1081 (protein)
chain: MKNSNLFAKLLAVVLIFLSNPTLAVEWTAEWIWSKERFTDPNSWVVIRKEVNLESVGQNSTAYISADTKYWLWINGQLVVFEGSYTGGPSPVKPSPRVDFYPIASNKYYDQVDIGRYLKKGKNTIAALAWYYGDNGQKGTYISSNTGGFIFQAHVGDNVIATDSSWKVLPHPAYDKKVIKKSPYRVAAWSVKYDARKDLNDWSNKAWYMPGYDDSDWQTPRIKRQPPRPPFFGLYPSEIPPLNNYGLANCENYPESKFPFISDGKTIKCKLDFNKNFTPYFDIEAKAGQQIHIKSNMRLNTIETFYTTKAGRQQFESYSWLNGRIIEYRIPKGVKVHGLKYRWTGVGTTPGHFEADDAWYSRIWQMAENTLYICARDNFMDTPDRERGLWIGDVADQASYLFYSMDKPGRDLLKKAIKVTLAFSDSESGIFAGLGPGRFRELPAQSLQFIEQGIWHYYYNTGDLETLKFAYPYVHRYLTLWGIKDNGLATFRTGDWKWTDWGPQDTIDYDVIQNALYYSALVSARKMAKAVGDYTHIGLYSHRINSIKQAYQKHYWQNGYFSSNPNKFKDDRANAIAILFGLAKPEQYQQIVDNVLIPNHFASPHFEWMVYNAMAIAGRYEDALQRMKTRYAKQVDNQALSTLAEYLPSGGTENHAWNAPSTVLSQHIAGIAPTSVAWESYQVMPNMAHFKRVKQFVPSVQGDIDFEIQRDQQTVKIEIDSPENTTAIIGVPKQYFAIQTIMVNGKKLWENGQLTASISGIKLAGEDNKYVKFEVQPGHWLVTAQR
modifications: Catenovulum agarivorans
B6: 1014 (protein, listed as Thermoclostridium stercorarium)
chain: MMRVYNLKTNRIKNPMGFVINKPKLSWLVESDTAKHQVAAQVEISADINFENIIFDSGKRTDIDSISYSPQVELKPRTRYYWRVRVWGDDGSEAVSEAAWFETSKMDEPWKAKWITPDFDPSVHPVVFTDFSIERDVADARAYVCGLGLYEMSVNGEKTGDEYLAPGLVAYDKWIPYQTYDITSQLKKGINTAEFLLGNGWYKGRYGLNRKQPFRYGNEFALICEIHITYQDGTADVIYTDTSWKARKSKVIDSGIYDGEIYDDTFCDDAVYPVRIADLDVNKLEPRRSPGIKIKERIKPAEIIRTPEGETVIDMGQNMVGWLEFTNRAPKGAEIMLQFGEVLQDGNFYRDNLRTAKCEFHYISDGKVKKVRPHFTFYGFRYVKLTKWEGEVNPEDFTGLVLYSDLERTGNITTDNSLVNRLFLNALWSQKGNFLDVPTDCPQRDERMGWTGDAQVFSGAAAFNMDVFAFFGKYLYDLKQEQKARGGNVPVVVPAHDVKQNGACGWGDAAVIIPWNMYLHYGDVSILEQQYKSMKGWVDYIKSKDDAAGGRRLWLNDFHYGDCVSLDVEDPFNRFGGTEHAYLASAFYSYSAGIVSKAAKILNKKEDAEYYRKLSEEVKNAIRKEYFTPTGRLAVNTQTAYVIALYMDLVPDEWKERVAFELRKKLKETKYHLRTGFLGTPYLCRVLSEYGSNDIAYRLLTNTDYPGWLYPVTMGATTIWERWNSMLPDGKVSDTGMNSFNHYSYGSIVEWIYRNAAGIQPVEDAPGFRRFRLKPQPHYLLKSLDAEFLSPAEKIISRWNINENGSVSFYFRIPFNTTAELVLPDTEVQDWKEFMSLNVVNILILTCLKDLTRKCTEQILQCGKFMKMRGQKKL

Test: Experiment 6-1: screening of rhamnosidases for derhamnosylation of saponins in treated bark extract (2%), QS-17 2296 to QS-18 2150 (PAR %)
Type: biochemical, Quillaja saponaria
Conditions: TBE 2%, pH 7.5, 30 degC, 18 h; TIC peak area ratio percent of rhamnosylated starting saponin to derhamnosylated product, LCMS/MS; negative controls 4.876, 5.225

| Molecule | QS-17 (PAR %) |
| --- | --- |
| B1 | 5.315% |
| B2 | 5.289% |
| B3 | 5.272% |
| B4 | 5.339% |
| B5 | 5.348% |
| B6 | 5.309% |

Test: Experiment 6-1: screening of rhamnosidases for derhamnosylation of saponins in treated bark extract (2%), desglucosyl-QS-17 2134 to QS-21 1988 (PAR %)
Type: biochemical, Quillaja saponaria
Conditions: TBE 2%, pH 7.5, 30 degC, 18 h; TIC peak area ratio percent, LCMS/MS; negative controls 2.719, 2.158

| Molecule | Peak75 (PAR %) |
| --- | --- |
| B1 | 2.127% |
| B2 | 2.426% |
| B3 | 2.388% |
| B4 | 2.645% |
| B5 | 2.473% |
| B6 | 2.741% |

Test: Experiment 6-1: screening of rhamnosidases for derhamnosylation of saponins in treated bark extract (2%), QS-17 2310 to QS-18 2164 (PAR %)
Type: biochemical, Quillaja saponaria
Conditions: TBE 2%, pH 7.5, 30 degC, 18 h; TIC peak area ratio percent, LCMS/MS; negative controls 3.061, 2.429

| Molecule | Peak57 (PAR %) |
| --- | --- |
| B1 | 3.621% |
| B2 | 2.918% |
| B3 | 2.576% |
| B4 | 3.237% |
| B5 | 2.624% |
| B6 | 3.359% |

Test: Experiment 6-1: specificity of rhamnosidases towards other rhamnose residues (C3 saccharide rhamnose, C28 saccharide rhamnose)
Type: biochemical, Quillaja saponaria
Conditions: TBE 2%, pH 7.5, 30 degC, 18 h; LCMS/MS; negative controls 0.18, 0.17

| Molecule | ratio PP/QS-21 |
| --- | --- |
| B1 | 0.17 |
| B2 | 0.16 |
| B3 | 0.17 |
| B4 | 0.18 |
| B5 | 0.17 |
| B6 | 0.18 |
